Laboratory results: PMC6005179

Legend:
[1] = target: preF (DS-Cav1) with a C-terminal 8x His-tag and AviTag (respiratory syncytial virus (strain not stated)) (UniProt P03420); experiment: SPR
[2] = target: preF-stabilized variant of RSV F (PR-DM), tags removed, deglycosylated (respiratory syncytial virus (strain not stated)) (UniProt P03420); experiment: crystal structure

Substance	fold reduction in affinity against ADI-19425 [1]	stoichiometry N (Fab per preF trimer) [2]
ADI-19425 Fab, light chain Y31A variant	> 200 fold	
ADI-19425 Fab, light chain Y91A variant	> 80 fold	
AM22 Fab		3
